From article PMC12439037 (RSC Chemical Biology, 2025)
Substitutions are numbered along the chain they refer to. Ends that are not written are not given here. * marks the point of attachment. Myristoyl = CCCCCCCCCCCCCC(=O)*

Assays:
Assay in all cases: crystal structure
[1] = target: T1, SIRT2^H187A (human SIRT2 residues 50–356, H187A) (human, UniProt Q8IXJ6 50-356, H187A)
T1 sequence (looked up): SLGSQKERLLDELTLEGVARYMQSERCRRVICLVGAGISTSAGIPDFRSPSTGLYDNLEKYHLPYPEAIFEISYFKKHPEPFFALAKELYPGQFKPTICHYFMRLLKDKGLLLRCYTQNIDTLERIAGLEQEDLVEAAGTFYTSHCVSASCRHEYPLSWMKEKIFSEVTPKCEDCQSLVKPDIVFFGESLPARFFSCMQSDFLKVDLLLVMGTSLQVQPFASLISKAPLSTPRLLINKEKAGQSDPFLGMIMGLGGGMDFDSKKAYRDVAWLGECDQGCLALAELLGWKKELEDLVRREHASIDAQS

[2] = target: T2, SIRT2^F96A (human SIRT2 residues 50–356, F96A) (human, UniProt Q8IXJ6 50-356, F96A)
T2 sequence (looked up): T1 sequence (looked up) with F47A, A138H

[3] = target: T3, human SIRT2 (residues 50–356) (human, UniProt Q8IXJ6 50-356)
T3 sequence (looked up): T1 sequence (looked up) with A138H

Measured: binding result

B1: H3K18myr peptide (APRKmyrQLA) (peptide)
peptide: APRK(Myristoyl)QLA
binds: [1] | [2] | [3]
